Data: paper PMC5933801, “Cryo-EM structure of infectious bronchitis coronavirus spike protein reveals structural and functional evolution of coronavirus spike proteins” (PLoS Pathogens, 2018)

Target: the molecule itself
Assay: cryo-EM structure; IBV spike ectodomain 0.35 mg/ml in 2 mM Tris pH7.2 and 20 mM NaCl, plunge-frozen; pre-fusion state; three-fold noncrystallographic symmetry constraints in refinement

B1: IBV spike ectodomain (avian infectious bronchitis coronavirus, strain M41) (domain or fragment)
chain: LYDSSSYVYYYQSAFRPPNGWHLHGGAYAVVNISSESNNAGSSPGCIVGTIHGGRVVNASSIAMTAPSSGMAWSSSQFCTAHCNFSDTTVFVTHCYKYDGCPITGMLQKNFLRVSAMKNGQLFYNLTVSVAKYPTFKSFQCVNNLTSVYLNGDLVYTSNETTDVTSAGVYFKAGGPITYKVMRKVKALAYFVNGTAQDVILCDGSPRGLLACQYNTGNFSDGFYPFINSSLVKQKFIVYRENSVNTTFTLHNFTFHNETGANPNPSGVQNILTYQTQTAQSGYYNFNFSFLSSFVYKESNFMYGSYHPSCNFRLETINNGLWFNSLSVSIAYGPLQGGCKQSVFSGRATCCYAYSYGGPSLCKGVYSGELDLNFECGLLVYVTKSGGSRIQTATEPPVITRHNYNNITLNTCVDYNIYGRTGQGFITNVTDSAVSYNYLADAGLAILDTSGSIDIFVVQGEYGLTYYKVNPCEDVNQQFVVSGGKLVGILTSRNETGSQLLENQFYIKITNGTRRFRRSITENVANCPYVSYGKFCIKPDGSIATIVPKQLEQFVAPLLNVTENVLIPNSFNLTVTDEYIQTRMDKVQINCLQYVCGNSLDCRDLFQQYGPVCDNILSVVNSIGQKEDMELLNFYSSTKPAGFNTPFLSNVSTGEFNISLLLTTPSSPRRRSFIEDLLFTSVESVGLPTDDAYKNCTAGPLGFLKDLACAREYNGLLVLPPIITAEMQTLYTSSLVASMAFGGITAAGAIPFATQLQARINHLGITQSLLLKNQEKIAASFNKAIGRMQEGFRSTSLALQQIQDVVNKQSAILTETMASLNKNFGAISSVIQEIYQQLDAIQANAQVDRLITGRLSSLSVLASAKQAEHIRVSQQRELATQKINECVKSQSIRYSFCGNGRHVLTIPQNAPNGIVFIHFSYTPDSFVNVTAIVGFCVKPANASQYAIVPANGRGIFIQVNGSYYITARDMYMPRAITAGDIVTLTSCQANYVSVNKTVITTFVDNDDFDFNDELSKWWNDTKHELPDFDKFNYTVPILDIDSEIDRIQGVIQGLNDSLIDLEKLS
modifications: glycans N-linked to 20 sites
notes: Spike protein of avian infectious bronchitis coronavirus (IBV) strain M41, GenBank ABI26423.1, ectodomain residues 20-1084; transmembrane anchor and intracellular domain replaced by GCN4 and His6 tags; The structural model holds residues 21-1022 except 702-710; The GCN4 tag is a trimerization tag; also called trimeric IBV spike ectodomain; source: Sf9 insect cells (Bac-to-Bac), harvested from …
stoichiometry N: 3
